According to PMC8766458, “Deciphering the mechanism of processive ssDNA digestion by the Dna2-RPA ensemble” (Nature Communications, 2022):

Target: dna2-D657A (nuclease-dead);RPA (Saccharomyces cerevisiae;Saccharomyces …, UniProt P38859;P22336;P26754;P26755 1-1522;1-621;1-273;1-122, D657A|)
Experiment: EMSA; ternary complex; EMSA: 25 mM Tris-HCl pH 7.5, 150 mM KCl, 1 mM DTT, 100 µg/mL BSA, 5 nM DNA, 30 °C 10 min, 4% native PAGE in 0.2x TBE; DNA curtains: 50 or 150 mM NaCl, 0.1 nM RPA-GFP
Settings: protein: recombinant;recombinant; tags: His6, FLAG;none; copies: 1;1;1;1; label: 32P 5'-end; 5' overhang 30 nt (dT30), 20 bp duplex

dna2-D657A (nuclease-dead);RPA, sequence (P38859 whole entry D657A, chain 1 of 4): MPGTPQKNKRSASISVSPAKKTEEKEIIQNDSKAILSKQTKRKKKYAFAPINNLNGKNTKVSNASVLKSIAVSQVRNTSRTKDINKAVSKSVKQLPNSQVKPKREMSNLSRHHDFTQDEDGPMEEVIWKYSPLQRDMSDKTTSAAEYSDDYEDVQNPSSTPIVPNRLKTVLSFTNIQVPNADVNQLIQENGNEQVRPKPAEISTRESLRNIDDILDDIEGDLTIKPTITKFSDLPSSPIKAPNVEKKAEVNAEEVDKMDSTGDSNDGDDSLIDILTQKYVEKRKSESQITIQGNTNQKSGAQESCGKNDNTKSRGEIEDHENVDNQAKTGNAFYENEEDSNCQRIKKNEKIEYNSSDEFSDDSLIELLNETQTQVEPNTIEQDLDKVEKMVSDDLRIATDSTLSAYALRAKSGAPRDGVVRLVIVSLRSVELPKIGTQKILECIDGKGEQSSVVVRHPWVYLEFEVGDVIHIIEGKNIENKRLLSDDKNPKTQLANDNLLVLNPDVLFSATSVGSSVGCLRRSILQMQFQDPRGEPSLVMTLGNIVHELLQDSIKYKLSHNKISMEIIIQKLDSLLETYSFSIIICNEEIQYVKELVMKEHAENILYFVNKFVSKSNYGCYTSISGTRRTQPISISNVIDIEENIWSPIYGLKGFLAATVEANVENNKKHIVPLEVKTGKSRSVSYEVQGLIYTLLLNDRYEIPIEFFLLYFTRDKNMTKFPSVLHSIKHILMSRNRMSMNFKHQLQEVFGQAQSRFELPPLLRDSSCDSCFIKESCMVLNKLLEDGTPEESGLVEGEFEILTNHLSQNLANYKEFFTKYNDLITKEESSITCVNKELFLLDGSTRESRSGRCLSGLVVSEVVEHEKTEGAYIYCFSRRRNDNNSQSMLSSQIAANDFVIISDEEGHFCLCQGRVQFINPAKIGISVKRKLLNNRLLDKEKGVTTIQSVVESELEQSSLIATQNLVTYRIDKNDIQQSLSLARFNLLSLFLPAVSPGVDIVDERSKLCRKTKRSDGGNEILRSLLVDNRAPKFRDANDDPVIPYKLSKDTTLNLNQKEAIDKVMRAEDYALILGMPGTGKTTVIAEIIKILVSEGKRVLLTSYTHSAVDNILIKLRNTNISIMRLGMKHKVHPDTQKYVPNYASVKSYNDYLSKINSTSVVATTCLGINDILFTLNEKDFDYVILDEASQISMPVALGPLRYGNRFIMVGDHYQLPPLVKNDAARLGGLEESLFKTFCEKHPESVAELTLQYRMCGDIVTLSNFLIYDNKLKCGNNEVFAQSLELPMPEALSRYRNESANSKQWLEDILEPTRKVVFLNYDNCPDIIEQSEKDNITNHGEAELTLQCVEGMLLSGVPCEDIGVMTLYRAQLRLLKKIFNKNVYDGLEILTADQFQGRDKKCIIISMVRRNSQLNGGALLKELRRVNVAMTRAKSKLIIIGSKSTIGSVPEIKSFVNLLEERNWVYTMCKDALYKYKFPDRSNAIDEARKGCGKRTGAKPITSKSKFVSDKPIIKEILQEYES
dna2-D657A (nuclease-dead);RPA, sequence (P22336 whole entry, chain 2 of 4): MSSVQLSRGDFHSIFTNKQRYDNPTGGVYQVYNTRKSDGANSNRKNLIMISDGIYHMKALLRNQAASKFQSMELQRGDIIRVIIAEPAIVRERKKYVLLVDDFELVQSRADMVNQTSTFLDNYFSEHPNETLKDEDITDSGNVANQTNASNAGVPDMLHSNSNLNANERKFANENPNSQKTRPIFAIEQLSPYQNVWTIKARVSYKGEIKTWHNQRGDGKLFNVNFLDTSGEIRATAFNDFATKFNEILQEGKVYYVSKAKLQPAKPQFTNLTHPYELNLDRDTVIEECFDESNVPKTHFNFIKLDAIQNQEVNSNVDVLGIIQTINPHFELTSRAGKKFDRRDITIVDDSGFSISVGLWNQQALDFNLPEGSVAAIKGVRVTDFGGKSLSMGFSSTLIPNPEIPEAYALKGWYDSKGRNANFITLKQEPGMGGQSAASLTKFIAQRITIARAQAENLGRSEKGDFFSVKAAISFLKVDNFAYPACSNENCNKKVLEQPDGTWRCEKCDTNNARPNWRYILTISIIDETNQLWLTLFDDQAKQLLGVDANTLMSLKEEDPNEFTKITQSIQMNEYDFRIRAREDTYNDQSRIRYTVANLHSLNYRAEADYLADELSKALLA
dna2-D657A (nuclease-dead);RPA, sequence (P26754 whole entry, chain 3 of 4): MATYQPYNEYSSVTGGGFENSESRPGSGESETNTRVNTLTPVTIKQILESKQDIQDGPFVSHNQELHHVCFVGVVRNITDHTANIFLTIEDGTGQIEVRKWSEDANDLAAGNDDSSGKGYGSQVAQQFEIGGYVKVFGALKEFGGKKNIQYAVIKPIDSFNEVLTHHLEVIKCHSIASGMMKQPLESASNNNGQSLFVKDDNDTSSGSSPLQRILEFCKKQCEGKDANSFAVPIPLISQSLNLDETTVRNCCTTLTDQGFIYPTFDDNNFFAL
dna2-D657A (nuclease-dead);RPA, sequence (P26755 whole entry, chain 4 of 4): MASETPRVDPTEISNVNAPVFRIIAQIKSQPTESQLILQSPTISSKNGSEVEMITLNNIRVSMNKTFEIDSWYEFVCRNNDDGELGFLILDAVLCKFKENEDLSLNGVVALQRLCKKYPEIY

B1: 5'-overhanging dT(30) DNA (S10+S11) (mixed)
DNA 1: TTTTTTTTTTTTTTTTTTTTTTTTTTTTTTTTGATAAGAGGTCATTTGAA
DNA 2: TTCAAATGACCTCTTATCAA
B1: binds.
